This note sets out measurements from publication PMC9249326 (2022).

Experiment [1] has as its target T1, 6xHis-tagged human NGF (nerve growth factor) (human, UniProt P01138 19-241). Put plainly: BLI. (In general: BLI is a label-free optical method that tracks binding on a fibre tip over time.)
Experiment [2] concerns the target T1, 6xHis-tagged human NGF (nerve growth …). Put plainly: BLI. The source holds these as a separate data set.

One may read the koff as a measure of how fast the partners let go of each other. A lower koff goes with slow dissociation. For orientation: Kd means the equilibrium constant for the complex coming apart. The low end stands for tighter binding, the high end for weaker binding.

T1 sequence (P01138 122-241): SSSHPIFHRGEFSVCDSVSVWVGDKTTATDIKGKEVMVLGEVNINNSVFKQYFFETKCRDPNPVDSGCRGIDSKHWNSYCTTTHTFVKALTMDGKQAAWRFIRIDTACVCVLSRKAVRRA

B1: tanezumab (antibody, V domains shown)
VH: QVQLQESGPGLVKPSETLSLTCTVSGFSLIGYDLNWIRQPPGKGLEWIGIIWGDGTTDYNSAVKSRVTISKDTSKNQFSLKLSSVTAADTAVYYCARGGYWYATSYYFDYWGQGTLVTVSS
VL: DIQMTQSPSSLSASVGDRVTITCRASQSISNNLNWYQQKPGKAPKLLIYYTSRFHSGVPSRFSGSGSGTDFTFTISSLQPEDIATYYCQQEHTLPYTFGQGTKLEIK
B1 returned a dissociation rate constant (koff) in experiment [1] of less than 1e-07 s⁻¹. For the same molecule, the Kd in experiment [2] is less than 1 pM.
